Measurements reported in patent US20220340658A1 (WASHINGTON UNIVERSITY, published 2022).

Molecular target: SARS-CoV-1 spike protein (SARS-CoV-1, UniProt P59594 14-1190)
Experiment: ELISA, hybridoma supernatant

B1: SARS2-38 (antibody, V domains shown)
VH: QVQLKESGPGLVAPSQSLSITCTVSGFSLTRYGVHWVRQPPGKGLEWLGVIWADGSTYYNSALMSRLSISKDNSKSQVFLNMNSLQTDDTAKYYCARDGRGYDDYWGQGTTLTVSS
VL: QIVLTQSPAIMSASPGEKVTMTCSASSTVSFIYWYQQKPGSSPRLLIYDTSNPASGVPVRFSGSGCGTSYYLTISRMEAEDAATYYCQQWNTYPLTFGAGTKLELK
**Q.** Does B1 bind?
**A.** Result: no binding
